Reference: PMC10728164

Target: cardiac troponin I (human (endogenous in heart tissue)) (UniProt P19429)
Assay: affinity purification with mass spectrometry; co-purification of the cTn subunits from human heart extract on the cTnI-binding peptide nanoparticles (NP-Pep); 25 mM Tris pH 7.5, 700 mM LiCl, 4 °C; native elution; subunits in the eluate analysed (Supplementary Fig. 2, 3a) and by top-down RPLC-MS/MS

Chain of UniProt P19429 (P19429 whole entry): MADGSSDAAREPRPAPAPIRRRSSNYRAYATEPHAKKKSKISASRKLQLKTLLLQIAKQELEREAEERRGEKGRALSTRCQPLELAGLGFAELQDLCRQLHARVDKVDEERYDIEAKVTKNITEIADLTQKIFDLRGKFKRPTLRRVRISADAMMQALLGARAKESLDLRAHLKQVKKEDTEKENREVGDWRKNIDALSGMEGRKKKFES

cardiac troponin T (natural protein) showed a stoichiometry N of 1.
